Test results reported in article PMC12056017.
Values belong to the binder of their own block, whether it stands above or below them.

Columns and labels:
[1] = target: PD-1 ligand (PD-L1) fused to an intracellular monomeric green fluorescent protein (mGFP), Q9NZQ7; assay: DNA-PAINT super-resolution microscopy with nearest-neighbour analysis (SPINNA); CHO cells co-expressing CD80-mCherry and PD-L1-mEGFP, fixed with 4% PFA; labelled with anti-mCherry and anti-GFP nanobodies; two-round Exchange-PAINT, ~3 nm localization precision; model of monomers, homodimers …; settings: other: DNA-PAINT super-resolution microscopy with nearest-neighbour analysis (SPINNA)
Sequence of PD-1 ligand (PD-L1) fused to an intracellular monomeric green fluorescent protein (mGFP), Q9NZQ7 (Q9NZQ7 19-290): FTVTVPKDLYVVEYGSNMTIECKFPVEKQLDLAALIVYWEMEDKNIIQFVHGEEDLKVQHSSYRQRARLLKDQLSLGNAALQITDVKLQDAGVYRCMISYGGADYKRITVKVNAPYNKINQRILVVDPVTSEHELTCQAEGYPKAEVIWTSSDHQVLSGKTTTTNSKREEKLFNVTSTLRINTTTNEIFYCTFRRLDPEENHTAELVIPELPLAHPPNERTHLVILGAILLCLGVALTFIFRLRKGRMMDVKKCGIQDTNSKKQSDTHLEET

[2] = target: T1, CD80 fused to intracellular monomeric Cherry (mCherry), P33681; assay: DNA-PAINT super-resolution microscopy with nearest-neighbour analysis (SPINNA); CHO cells co-expressing CD80-mCherry and PD-L1-mEGFP, fixed with 4% PFA; labelled with anti-mCherry and anti-GFP nanobodies; two-round Exchange-PAINT, ~3 nm localization precision; model of monomers, homodimers and heterodimers fitted to nearest-neighbour distances with density masks; 3 cells; settings: remark: other sources report otherwise
T1 chain: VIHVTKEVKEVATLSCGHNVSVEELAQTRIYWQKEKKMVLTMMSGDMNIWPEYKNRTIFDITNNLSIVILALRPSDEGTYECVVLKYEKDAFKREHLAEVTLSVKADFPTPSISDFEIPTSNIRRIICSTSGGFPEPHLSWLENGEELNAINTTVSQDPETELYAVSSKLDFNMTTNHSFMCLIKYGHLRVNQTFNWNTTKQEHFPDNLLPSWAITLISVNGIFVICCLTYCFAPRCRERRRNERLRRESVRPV

[3] = target: T1, CD80 fused to intracellular monomeric …; assay: as above; settings: remark: other sources report otherwise

B1: CD80 fused to intracellular monomeric Cherry (mCherry) (protein)
chain: T1 chain
percent of all molecules in heterodimers [1]: PD-L1 and CD80 heterodimers (27 ± 5) %

percent of all molecules in homodimers [2]: 11%
percent of all molecules in homodimers [3]: 9%
B2: CD80 fused to intracellular monomeric Cherry (mCherry), P33681 35-288 (ligand)
chain: T1 chain
